Experiments:
Settings in all cases: tags: SV40 NLS, 3xFLAG, nucleoplasmin NLS
[1] = target: APG06489-nAPG07433.1 (synthetic); experiment: cell_activity; A16>G editing, HEK293FT
Protocol: (§1) 500 ng of plasmid comprising an expression cassette comprising a coding sequence for a fusion protein for each deaminase described in Table 1 and 500 ng of plasmid comprising an expression cassette encoding an sgRNA shown in Table 2 were co-transfected into HEK293FT cells at 75-90% confluency in 24-well plates using Lipofectamine 2000 reagent (Life Technologies). Cells were then incubated at 37° C. for 72 h. Following incubation, genomic DNA was then extracted using NucleoSpin 96 Tissue (Macherey-Nagel) following the manufacturer's protocol. The genomic region flanking the targeted genomic site was PCR amplified using the primers in Table 2 and products were purified using ZR-96 DNA Clean and Concentrator (Zymo Research) following the manufacturer's protocol. The purified PCR products underwent Next Generation Sequencing on Illumina MiSeq. Typically, 100,000 of 250 bp paired-end reads (2×100,000 reads) are generated per amplicon. The reads were analyzed using CRISPResso (Pinello, et al. 2016 Nature Biotech, 34:695-697) to calculate the rates of editing. Output alignments were analyzed for INDEL formation or introduction of specific adenine mutations. Tables 3 through 7 show adenine base editing for each fusion protein comprising nAPG07433.1 and a deaminase from Table 1 and a guide RNA from Table 2. The deaminase component of each fusion protein is indicated. The editing rate for adenines within or proximal to the target sequence is indicated. “A5” indicates, for example, an adenine at position 5 of the target sequence. The position of each nucleotide in the target sequence was determined by numbering the first nucleotide in the target sequence closest to the PAM as position 1, and the position number increases in the […] away from the PAM sequence. The tables also show which nucleotide the adenine was changed to, and at what rate.

[2] = target: APG09949-nAPG07433.1 (synthetic); experiment: cell_activity; A16>G editing, HEK293FT
Protocol: as §1

[3] = target: APG05723-nAPG07433.1 (synthetic); experiment: cell_activity; A16>G editing, HEK293FT
Protocol: as §1

[4] = target: APG05174-nAPG07433.1 (synthetic); experiment: cell_activity; A16>G editing, HEK293FT
Protocol: as §1

[5] = target: APG08196-nAPG07433.1 (synthetic); experiment: cell_activity; A16>G editing, HEK293FT
Protocol: as §1

[6] = target: APG08449-nAPG07433.1 (synthetic); experiment: cell_activity; A16>G editing, HEK293FT
Protocol: as §1

[7] = target: APG06333-nAPG07433.1 (synthetic); experiment: cell_activity; A16>G editing, HEK293FT
Protocol: as §1

[8] = target: APG03724-nAPG07433.1 (synthetic); experiment: cell_activity; A16>G editing, HEK293FT
Protocol: as §1

[9] = target: APG09102-nAPG07433.1 (synthetic); experiment: cell_activity; A16>G editing, HEK293FT
Protocol: as §1

[10] = target: LPG50182-nAPG07433.1 (synthetic); experiment: cell_activity; mutated reads, HEK293FT
Protocol: (§2) 500 ng of plasmid comprising an expression cassette comprising a coding sequence for a fusion protein shown in Table 10 and 500 ng of plasmid comprising an expression cassette encoding for an sgRNA shown in Table 11 were co-transfected into HEK293FT cells at 75-90% confluency in 24-well plates using Lipofectamine 2000 reagent (Life Technologies). Cells were then incubated at 37° C. for 72 h. Following incubation, genomic DNA was then extracted using NucleoSpin 96 Tissue (Macherey-Nagel) following the manufacturer's protocol. The genomic region flanking the targeted genomic site was PCR amplified using the primers in Table 11 and products were purified using ZR-96 DNA Clean and Concentrator (Zymo Research) following the manufacturer's protocol. The purified PCR products underwent Next Generation Sequencing on Illumina MiSeq. Typically, 100,000 of 250 bp paired-end reads (2×100,000 reads) are generated per amplicon. The reads were analyzed using CRISPResso (Pinello, et al. 2016 Nature Biotech, 34:695-697) to calculate the rates of editing. Output alignments were analyzed for INDEL formation or introduction of specific adenine mutations.
(§3) The editing rate for adenines within or proximal to the target sequence is indicated. “A5” indicates, for example, an adenine at position 5 of the target sequence. The position of each nucleotide in the target sequence was determined by numbering the first nucleotide in the target sequence closest to the PAM (which is 3′ of the target for APG07433.1) as position 1, and the position number increases in the 5′ direction away from the PAM sequence. The tables also show which nucleotide the adenine was changed to, and at what rate.

[11] = target: LPG50141-nAPG07433.1 (synthetic); experiment: cell_activity; mutated reads, HEK293FT
Protocol: as §2, §3

[12] = target: LPG50166-nAPG07433.1 (synthetic); experiment: cell_activity; mutated reads, HEK293FT
Protocol: as §2, §3

[13] = target: LPG50159-nAPG07433.1 (synthetic); experiment: cell_activity; mutated reads, HEK293FT
Protocol: as §2, §3

[14] = target: LPG50152-nAPG07433.1 (synthetic); experiment: cell_activity; mutated reads, HEK293FT
Protocol: as §2, §3

[15] = target: LPG50145-nAPG07433.1 (synthetic); experiment: cell_activity; mutated reads, HEK293FT
Protocol: as §2, §3

[16] = target: LPG50149-nAPG07433.1 (synthetic); experiment: cell_activity; mutated reads, HEK293FT
Protocol: as §2, §3

[17] = target: LPG50169-nAPG07433.1 (synthetic); experiment: cell_activity; mutated reads, HEK293FT
Protocol: as §2, §3

[18] = target: LPG50167-nAPG07433.1 (synthetic); experiment: cell_activity; mutated reads, HEK293FT
Protocol: as §2, §3

[19] = target: LPG50155-nAPG07433.1 (synthetic); experiment: cell_activity; mutated reads, HEK293FT
Protocol: as §2, §3

[20] = target: LPG50157-nAPG07433.1 (synthetic); experiment: cell_activity; mutated reads, HEK293FT
Protocol: as §2, §3

[21] = target: LPG50179-nAPG07433.1 (synthetic); experiment: cell_activity; mutated reads, HEK293FT
Protocol: as §2, §3

[22] = target: LPG50162-nAPG07433.1 (synthetic); experiment: cell_activity; mutated reads, HEK293FT
Protocol: as §2, §3

[23] = target: LPG50146-nAPG07433.1 (synthetic); experiment: cell_activity; mutated reads, HEK293FT
Protocol: as §2, §3

[24] = target: LPG50176-nAPG07433.1 (synthetic); experiment: cell_activity; mutated reads, HEK293FT
Protocol: as §2, §3

[25] = target: LPG50151-nAPG07433.1 (synthetic); experiment: cell_activity; mutated reads, HEK293FT
Protocol: as §2, §3

[26] = target: LPG50142-nAPG07433.1 (synthetic); experiment: cell_activity; mutated reads, HEK293FT
Protocol: as §2, §3

[27] = target: LPG50163-nAPG07433.1 (synthetic); experiment: cell_activity; mutated reads, HEK293FT
Protocol: as §2, §3

[28] = target: LPG50165-nAPG07433.1 (synthetic); experiment: cell_activity; mutated reads, HEK293FT
Protocol: as §2, §3

[29] = target: LPG50170-nAPG07433.1 (synthetic); experiment: cell_activity; mutated reads, HEK293FT
Protocol: as §2, §3

[30] = target: LPG50147-nAPG07433.1 (synthetic); experiment: cell_activity; mutated reads, HEK293FT
Protocol: as §2, §3

[31] = target: LPG50143-nAPG07433.1 (synthetic); experiment: cell_activity; mutated reads, HEK293FT
Protocol: as §2, §3

[32] = target: LPG50181-nAPG07433.1 (synthetic); experiment: cell_activity; mutated reads, HEK293FT
Protocol: as §2, §3

[33] = target: LPG50158-nAPG07433.1 (synthetic); experiment: cell_activity; mutated reads, HEK293FT
Protocol: as §2, §3

[34] = target: LPG50156-nAPG07433.1 (synthetic); experiment: cell_activity; mutated reads, HEK293FT
Protocol: as §2, §3

[35] = target: LPG50174-nAPG07433.1 (synthetic); experiment: cell_activity; mutated reads, HEK293FT
Protocol: as §2, §3

[36] = target: LPG50168-nAPG07433.1 (synthetic); experiment: cell_activity; mutated reads, HEK293FT
Protocol: as §2, §3

[37] = target: LPG50175-nAPG07433.1 (synthetic); experiment: cell_activity; mutated reads, HEK293FT
Protocol: as §2, §3

[38] = target: LPG50177-nAPG07433.1 (synthetic); experiment: cell_activity; mutated reads, HEK293FT
Protocol: as §2, §3

[39] = target: LPG50144-nAPG07433.1 (synthetic); experiment: cell_activity; mutated reads, HEK293FT
Protocol: as §2, §3

[40] = target: LPG50150-nAPG07433.1 (synthetic); experiment: cell_activity; mutated reads, HEK293FT
Protocol: as §2, §3

[41] = target: LPG50164-nAPG07433.1 (synthetic); experiment: cell_activity; mutated reads, HEK293FT
Protocol: as §2, §3

[42] = target: LPG50160-nAPG07433.1 (synthetic); experiment: cell_activity; mutated reads, HEK293FT
Protocol: as §2, §3

[43] = target: LPG50173-nAPG07433.1 (synthetic); experiment: cell_activity; mutated reads, HEK293FT
Protocol: as §2, §3

[44] = target: LPG50171-nAPG07433.1 (synthetic); experiment: cell_activity; mutated reads, HEK293FT
Protocol: as §2, §3

[45] = target: LPG50178-nAPG07433.1 (synthetic); experiment: cell_activity; mutated reads, HEK293FT
Protocol: as §2, §3

[46] = target: LPG50140-nAPG07433.1 (synthetic); experiment: cell_activity; mutated reads, HEK293FT; PAM 3' of target
Protocol: as §2, §3

[47] = target: LPG50148-nAPG07433.1 (synthetic); experiment: as above
Protocol: as §2, §3

[48] = target: LPG50180-nAPG07433.1 (synthetic); experiment: cell_activity; mutated reads, HEK293FT
Protocol: as §2, §3

[49] = target: LPG50154-nAPG07433.1 (synthetic); experiment: cell_activity; mutated reads, HEK293FT
Protocol: as §2, §3

[50] = target: LPG50153-nAPG07433.1 (synthetic); experiment: cell_activity; mutated reads, HEK293FT
Protocol: as §2, §3

[51] = target: LPG50161-nAPG07433.1 (synthetic); experiment: cell_activity; mutated reads, HEK293FT
Protocol: as §2, §3

[52] = target: LPG50172-nAPG07433.1 (synthetic); experiment: cell_activity; mutated reads, HEK293FT
Protocol: as §2, §3

LPG50148-nAPG07433.1 (synthetic), sequence (chain, as listed by the source): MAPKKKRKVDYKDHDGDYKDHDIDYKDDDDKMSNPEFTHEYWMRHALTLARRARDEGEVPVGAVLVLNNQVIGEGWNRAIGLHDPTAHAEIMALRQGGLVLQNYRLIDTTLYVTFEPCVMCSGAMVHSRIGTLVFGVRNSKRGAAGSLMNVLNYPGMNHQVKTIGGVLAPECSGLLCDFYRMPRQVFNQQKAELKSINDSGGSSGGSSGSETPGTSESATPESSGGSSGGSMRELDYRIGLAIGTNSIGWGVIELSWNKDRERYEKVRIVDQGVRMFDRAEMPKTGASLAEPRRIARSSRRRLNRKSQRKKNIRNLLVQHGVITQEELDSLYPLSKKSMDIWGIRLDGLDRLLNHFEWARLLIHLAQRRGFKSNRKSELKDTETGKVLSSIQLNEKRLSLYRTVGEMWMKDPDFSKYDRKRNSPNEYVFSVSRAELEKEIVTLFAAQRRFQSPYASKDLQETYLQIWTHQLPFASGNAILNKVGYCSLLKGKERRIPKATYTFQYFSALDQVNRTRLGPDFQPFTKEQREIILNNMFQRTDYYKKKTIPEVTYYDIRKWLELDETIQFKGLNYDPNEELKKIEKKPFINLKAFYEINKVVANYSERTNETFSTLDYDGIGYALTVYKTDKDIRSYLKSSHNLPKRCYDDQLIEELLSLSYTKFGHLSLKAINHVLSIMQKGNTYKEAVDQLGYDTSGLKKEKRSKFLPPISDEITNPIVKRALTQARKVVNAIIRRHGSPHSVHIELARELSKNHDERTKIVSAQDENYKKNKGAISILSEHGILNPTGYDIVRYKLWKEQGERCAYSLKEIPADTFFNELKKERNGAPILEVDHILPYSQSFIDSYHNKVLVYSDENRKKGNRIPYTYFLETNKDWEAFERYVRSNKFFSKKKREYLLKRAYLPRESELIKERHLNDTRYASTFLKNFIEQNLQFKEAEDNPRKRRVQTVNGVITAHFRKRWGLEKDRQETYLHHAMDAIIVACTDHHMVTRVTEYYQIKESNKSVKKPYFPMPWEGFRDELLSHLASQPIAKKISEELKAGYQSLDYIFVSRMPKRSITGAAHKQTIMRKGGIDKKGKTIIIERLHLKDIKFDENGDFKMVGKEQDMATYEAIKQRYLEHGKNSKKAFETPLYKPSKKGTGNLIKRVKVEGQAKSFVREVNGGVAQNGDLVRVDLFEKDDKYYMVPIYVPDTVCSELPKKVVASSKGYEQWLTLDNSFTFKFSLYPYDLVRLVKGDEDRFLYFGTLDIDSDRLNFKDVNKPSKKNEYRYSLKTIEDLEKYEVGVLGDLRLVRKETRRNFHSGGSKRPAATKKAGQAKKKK
LPG50180-nAPG07433.1 (synthetic), sequence (chain, as listed by the source): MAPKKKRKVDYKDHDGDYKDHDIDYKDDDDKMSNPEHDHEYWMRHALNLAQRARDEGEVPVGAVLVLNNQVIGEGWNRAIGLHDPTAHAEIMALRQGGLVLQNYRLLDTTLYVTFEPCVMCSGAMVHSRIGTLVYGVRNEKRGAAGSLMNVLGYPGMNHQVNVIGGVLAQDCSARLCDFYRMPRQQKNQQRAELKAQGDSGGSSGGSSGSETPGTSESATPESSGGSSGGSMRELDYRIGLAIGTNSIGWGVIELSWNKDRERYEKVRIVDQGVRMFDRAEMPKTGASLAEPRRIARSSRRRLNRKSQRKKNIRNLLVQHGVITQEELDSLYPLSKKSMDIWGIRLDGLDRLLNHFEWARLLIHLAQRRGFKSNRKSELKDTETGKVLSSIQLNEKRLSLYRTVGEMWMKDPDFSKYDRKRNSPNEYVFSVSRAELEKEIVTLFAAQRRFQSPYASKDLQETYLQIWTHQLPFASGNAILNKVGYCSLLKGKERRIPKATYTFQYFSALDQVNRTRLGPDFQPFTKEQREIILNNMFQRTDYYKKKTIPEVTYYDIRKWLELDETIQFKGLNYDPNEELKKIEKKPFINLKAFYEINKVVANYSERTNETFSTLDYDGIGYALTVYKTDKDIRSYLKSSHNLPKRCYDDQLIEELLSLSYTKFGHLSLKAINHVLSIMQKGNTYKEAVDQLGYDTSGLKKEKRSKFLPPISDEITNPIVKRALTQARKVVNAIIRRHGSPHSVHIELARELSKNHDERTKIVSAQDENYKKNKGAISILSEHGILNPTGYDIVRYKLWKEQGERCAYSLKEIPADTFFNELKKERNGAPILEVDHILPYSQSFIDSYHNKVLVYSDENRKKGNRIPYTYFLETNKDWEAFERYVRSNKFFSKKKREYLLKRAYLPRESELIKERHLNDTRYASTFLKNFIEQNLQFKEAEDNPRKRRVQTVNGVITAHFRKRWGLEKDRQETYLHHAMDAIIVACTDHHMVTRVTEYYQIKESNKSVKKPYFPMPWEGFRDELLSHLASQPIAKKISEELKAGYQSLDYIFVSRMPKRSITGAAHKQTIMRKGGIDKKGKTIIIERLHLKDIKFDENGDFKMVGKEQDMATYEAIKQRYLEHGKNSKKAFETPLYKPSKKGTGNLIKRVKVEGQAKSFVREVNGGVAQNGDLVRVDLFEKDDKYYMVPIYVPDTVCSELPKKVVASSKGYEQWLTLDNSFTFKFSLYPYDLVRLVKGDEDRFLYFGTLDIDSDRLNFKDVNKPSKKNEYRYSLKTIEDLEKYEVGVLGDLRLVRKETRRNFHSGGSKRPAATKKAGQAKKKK
LPG50181-nAPG07433.1 (synthetic), sequence (chain, as listed by the source): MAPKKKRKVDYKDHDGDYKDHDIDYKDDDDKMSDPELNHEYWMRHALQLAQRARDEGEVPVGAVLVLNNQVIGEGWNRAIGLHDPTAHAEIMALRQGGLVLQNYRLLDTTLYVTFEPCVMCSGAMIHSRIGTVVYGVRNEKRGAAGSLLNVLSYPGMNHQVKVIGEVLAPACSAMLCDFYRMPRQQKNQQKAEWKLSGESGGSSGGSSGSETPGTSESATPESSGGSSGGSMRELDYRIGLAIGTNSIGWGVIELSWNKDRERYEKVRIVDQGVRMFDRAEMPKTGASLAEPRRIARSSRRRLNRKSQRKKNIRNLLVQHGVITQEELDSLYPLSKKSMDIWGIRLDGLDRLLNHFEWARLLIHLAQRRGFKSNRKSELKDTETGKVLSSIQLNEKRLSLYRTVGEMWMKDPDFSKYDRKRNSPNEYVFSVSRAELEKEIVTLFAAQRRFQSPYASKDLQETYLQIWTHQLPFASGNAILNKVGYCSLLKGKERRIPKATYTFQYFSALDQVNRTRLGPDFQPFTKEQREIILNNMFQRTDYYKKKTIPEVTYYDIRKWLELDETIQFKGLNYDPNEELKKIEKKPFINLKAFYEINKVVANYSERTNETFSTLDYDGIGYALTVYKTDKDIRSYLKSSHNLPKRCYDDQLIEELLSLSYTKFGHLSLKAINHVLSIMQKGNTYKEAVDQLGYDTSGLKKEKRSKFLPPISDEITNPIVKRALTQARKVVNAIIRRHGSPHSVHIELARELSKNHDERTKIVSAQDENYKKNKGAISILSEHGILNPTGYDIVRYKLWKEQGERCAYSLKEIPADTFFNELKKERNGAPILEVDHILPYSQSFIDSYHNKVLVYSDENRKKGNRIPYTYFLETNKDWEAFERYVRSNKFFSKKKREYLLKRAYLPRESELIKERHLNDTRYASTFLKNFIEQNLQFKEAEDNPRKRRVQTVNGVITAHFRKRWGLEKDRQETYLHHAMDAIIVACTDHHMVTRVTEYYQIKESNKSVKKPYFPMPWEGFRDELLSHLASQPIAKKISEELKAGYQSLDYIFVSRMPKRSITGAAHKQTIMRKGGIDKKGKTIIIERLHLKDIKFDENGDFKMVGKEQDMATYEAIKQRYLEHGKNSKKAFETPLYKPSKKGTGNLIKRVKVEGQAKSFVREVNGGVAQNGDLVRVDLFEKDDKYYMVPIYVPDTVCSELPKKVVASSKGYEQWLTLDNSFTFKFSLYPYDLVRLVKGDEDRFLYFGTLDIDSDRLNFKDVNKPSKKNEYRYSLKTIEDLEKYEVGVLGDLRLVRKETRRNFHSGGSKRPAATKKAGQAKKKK

B1: SGN000186 sgRNA (Table 2) ; SGN000186 target (Table 2) (ssRNA ; dsDNA)
RNA: GGACAGUGCGCAUCUCCCUGGUCAUAGUUCCAUUAAAGCCAAAAGUGGCUUUGAUGUUUCUAUGAUAAGGGUUUCGACCCGUGGCGUCGGGGAUCGCCUGCCCAUUGAAAUGGGCUUCUCCCCAUUUAUU
DNA 1: GGACAGTGCGCATCTCCCTG
DNA 2: CAGGGAGATGCGCACTGTCC
For B1, the activity [1] was 2.5%, the activity [2] was 3.4% and the activity [3] was 1.9%. For the same binder, the activity [4] was 3.2%, the activity [5] was 3.3% and the activity [6] was 5.3%. It also gave an activity [7] of 4.2%, an activity [8] of 4.1% and an activity [9] of 6.2%.

B2: SGN000186 sgRNA (Table 11) ; SGN000186 target (Table 11) (ssRNA ; dsDNA)
RNA: GGACAGUGCGCAUCUCCCUGGUCAUAGUUCCAUUAAAGCCAAAAGUGGCUUUGAUGUUUCUAUGAUAAGGGUUUCGACCCGUGGCGUCGGGGAUCGCCUGCCCAUUGAAAUGGGCUUCUCCCCAUUUAUU
DNA 1: GGACAGTGCGCATCTCCCTG
DNA 2: CAGGGAGATGCGCACTGTCC
B2 was tested, and the activity [10] was 9%, the activity [11] was 9.79% and the activity [12] was 8%. The activity [13] was 6.99%, the activity [14] was 18% and the activity [15] was 9.93%. For the same binder, the activity [16] was 22.1%, the activity [17] was 13% and the activity [18] was 8%. For the same binder, the activity [19] was 17%, the activity [20] was 12.2% and the activity [21] was 12.5%. For the same binder, the activity [22] was 14%, the activity [23] was 17.8% and the activity [24] was 7%. It also gave an activity [25] of 7.76%, an activity [26] of 14.1% and an activity [27] of 10%. For the same binder, the activity [28] was 9.88%, the activity [29] was 12.2% and the activity [30] was 12.6%. For the same binder, the activity [31] was 10.6%, the activity [32] was 12.6% and the activity [33] was 4.91%. It also gave an activity [34] of 12.7%, an activity [35] of 8% and an activity [36] of 7%. It also gave an activity [37] of 14%, an activity [38] of 11% and an activity [39] of 12.2%. It also gave an activity [40] of 23.7%, an activity [41] of 7.38% and an activity [42] of 16%. The activity [43] was 7.88%, the activity [44] was 12.7% and the activity [45] was 12.9%. For the same binder, the activity [46] was 18.8% and the activity [47] was 32.6%.

B3: SGN001681 sgRNA ; SGN001681 target (ssRNA ; dsDNA)
RNA: CCGUGCCUUGACCUACCCUGGUCAUAGUUCCAUUAAAGCCAAAAGUGGCUUUGAUGUUUCUAUGAUAAGGGUUUCGACCCGUGGCGUCGGGGAUCGCCUGCCCAUUGAAAUGGGCUUCUCCCCAUUUAUU
DNA 1: CCGTGCCTTGACCTACCCTG
DNA 2: CAGGGTAGGTCAAGGCACGG
B3 gave an activity [48] of 1.8%, an activity [49] of 2.26% and an activity [50] of 1.12%. For the same binder, the activity [51] was 1.47%, the activity [52] was 1.78% and the activity [47] was 49.4%.
